B1: hNINJ1∆1–36 (domain or fragment, human, UniProt Q92982 37-152, looked up)
chain: NVNHYASKKSAAESMLDIALLMANASQLKAVVEQGPSFAFYVPLVVLISISLVLQIGVGVLLIFLVKYDLNNPAKHAKLDFLNNLATGLVFIIVVVNIFITAFGVQKPLMDMAPQQ
notes: ninjurin-1 (NINJ1), human, UniProt Q92982, printed as hNINJ1∆1–36 (residues 1–36 removed); probably as the wild type (8×His and TEV site, cleaved); also called truncated hNINJ1; source: E. coli Rosetta2 (DE3), purified
B2: hNINJ1 Q91A (natural protein, human, UniProt Q92982 1-152, looked up)
chain: MDSGTEEYELNGGLPPGTPGSPDASPARWGWRHGPINVNHYASKKSAAESMLDIALLMANASQLKAVVEQGPSFAFYVPLVVLISISLVLAIGVGVLLIFLVKYDLNNPAKHAKLDFLNNLATGLVFIIVVVNIFITAFGVQKPLMDMAPQQ
notes: ninjurin-1 (NINJ1), human, UniProt Q92982, residues 1–152, point mutant; source: E. coli Rosetta2 (DE3), purified (DDM, Ni-NTA, TEV cleavage); not shown: 8×His, N-terminal, cleaved
B3: hNINJ1 I84F (natural protein, human, UniProt Q92982 1-152, looked up)
chain: B2 chain with I84F, A91Q
notes: as for B2
B4: hNINJ1 G95L (natural protein, human, UniProt Q92982 1-152, looked up)
chain: B2 chain with A91Q, G95L
notes: as for B2
B5: hNINJ1 L121F (natural protein, human, UniProt Q92982 1-152, looked up)
chain: B2 chain with A91Q, L121F
notes: as for B2
B6: hNINJ1 D53A (natural protein, human, UniProt Q92982 1-152, looked up)
chain: B2 chain with D53A, A91Q
notes: as for B2
B7: hNINJ1 K45Q (natural protein, human, UniProt Q92982 1-152, looked up)
chain: B2 chain with K45Q, A91Q
notes: as for B2
B8: hNINJ1 L121W (natural protein, human, UniProt Q92982 1-152, looked up)
chain: B2 chain with A91Q, L121W
notes: as for B2
B9: hNINJ1 T123L (natural protein, human, UniProt Q92982 1-152, looked up)
chain: B2 chain with A91Q, T123L
notes: as for B2
B10: hNINJ1 I134F (natural protein, human, UniProt Q92982 1-152, looked up)
chain: B2 chain with A91Q, I134F
notes: as for B2
B11: hNINJ1 V82F (natural protein, human, UniProt Q92982 1-152, looked up)
chain: B2 chain with V82F, A91Q
notes: as for B2
B12: hNINJ1 A138L (natural protein, human, UniProt Q92982 1-152, looked up)
chain: B2 chain with A91Q, A138L
notes: as for B2
B13: full-length, wild-type human NINJ1 (ninjurin-1), residues 1–152 (natural protein, UniProt Q92982 1-152, looked up)
chain: B2 chain with A91Q
notes: ninjurin-1 (NINJ1), human, UniProt Q92982, residues 1–152; residues 39–141 are modelled in the filament structure; residues of the site probably remain at the N-terminus after cleavage; Forms filaments of no fixed number of subunits; also called hNINJ1; hNINJ1(1–152); source: E. coli Rosetta2 (DE3), extracted from membranes with DDM, purified (Ni-NTA, TEV cleavage, SEC on Superose 6); not shown: …
B14: hNINJ1 V82W (natural protein, human, UniProt Q92982 1-152, looked up)
chain: B2 chain with V82W, A91Q
notes: as for B2
B15: hNINJ1 A47L (natural protein, human, UniProt Q92982 1-152, looked up)
chain: B2 chain with A47L, A91Q
notes: as for B2

Where a chain is given by its changes, count along the chain named.

This data set concerns the molecule itself. The data set can be described thus: negative-stain TEM; 0.02 mg/ml purified protein on glow-discharged carbon-coated copper grids, 2% uranyl acetate; single-point mutants taken directly after TEV cleavage of the 8×His tag.
B1: the binding result is “binds”.
For B2 the value was “binds”; for B3, “binds”.
In the case of B4 it was “binds”.
In the case of B5 it was “binds”; in that of B6, “binds”.
B7: the binding result is given as “binds”.
Consider B8, for which the binding result is given as “binds”.
For B9 the value was “binds”; for B10, “binds”.
As for B11, the binding result was “binds”.
In the case of B12, the binding result is listed as “binds”.
In the case of B13 it was “binds”.
Turning to B14, the binding result is listed as “binds”.
For the protein B15, the binding result is given as “binds”.

(Values after paper PMC10307626, “Structural basis of NINJ1-mediated plasma membrane rupture in cell death” (Nature, 2023).)
